The text below walks through data of US20180015177A1 (Genentech, published 2018).

Where a chain is given by its changes, count along the chain named. Values joined by “and” are separate entries in the source; they are usually repeats but may differ in a detail not shown here. Identical values can stand only once.

By Kd is commonly meant a measure of binding affinity in units of concentration. For orientation: IC50 means the concentration that inhibits the measured activity by half.

The target in assay [1] is Cynomolgus monkey Ly6E, N-terminal gD-tagged, stably expressed on PC3 cells (cynomolgus monkey). Nature of the assay: Scatchard analysis on PC3 cells expressing gD-tagged cyno Ly6E (binding to the gD tag).
For assay [2], the target named is human Ly6E, N-terminal gD-tagged, stably expressed on PC3 cells (human) (UniProt Q16553). Kind of assay: Scatchard analysis on PC3 cells expressing gD-tagged human Ly6E (binding to the gD tag).
The target of assay [3] is T1, human Ly6E, N-terminal gD-tagged, stably expressed on PC3 cells (human, UniProt Q16553 21-101).
T1 construct: GPI-linked protein on cells; also called hu Ly6E; human Ly6E transfected PC3 cells; not shown: N-terminal gD tag of the retroviral vector
T1 sequence: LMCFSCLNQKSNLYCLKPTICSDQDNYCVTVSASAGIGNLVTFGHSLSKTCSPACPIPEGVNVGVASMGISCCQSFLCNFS
Kind of assay: cell-based Ly6E competitive binding assay on human Ly6E PC3 cells; competitor mouse 9B12. The procedure:
(§1) Cell-based Ly6E competitive binding assay—Cultured human Ly6E transfected PC3 cells were harvested with 5 mM EDTA containing PBS. Cells were washed with PBS and added onto a 384-well high binding plate (Meso Scale Discovery Technology (MSD); Gaithersburg, Md.). The plate was kept at room temperature for 1 hr to allow cells to adhere to the plate as described (See Lu, Y., Wong, W. L. & Meng, Y. G. A high throughput electrochemiluminescent cell-binding assay for therapeutic anti-CD20 antibody selection. Journal of Immunological Methods 314, 74-79 (2006)). The plate with cells was blocked with fetal bovine serum containing PBS for 1 hr and then cooled on ice. Serially diluted antibody variant samples were mixed with equal volume of fixed concentration of mouse 9B12 Ab. The mixtures were added onto the plates and incubated at 4° C. with gentle shaking for 1 hr.
(§2) The plate was then washed with cold PBS and an anti-mouse IgG Fc specific Ab (Jackson ImmunoReserach; West Grove, Pa.) labeled with sulfo-ruthenium tag was added to the plate as the detection reagent. The plate was incubated at 4° C. with gentle shaking for 1 hr. After incubation the plate was washed again, and MSD read buffer (MSD; Gaithersburg, Md.) was added onto the wells. The plate was read with a MSD SectorÒ imager 6000. The data was graphed and analyzed using KaleidaGraph software (Synergy Software; Reading, Pa.) to determine IC₅₀ values.

For assay [4], the target named is T1, human Ly6E, N-terminal gD-tagged, …. Nature of the assay: cell-based competitive binding on human Ly6E PC3 cells; competitor mouse 9B12. The procedure:
as §1, §2

As for anti-gD mAb (antibody), in assay [1], the equilibrium dissociation constant (Kd) stood at 2 nM and the Sites/Cell was 53000 sites/cell. In assay [2], this molecule registered an equilibrium dissociation constant (Kd) of 1.1 nM and a Sites/Cell of 13000 sites/cell.

B1: humanized 9B12 variant v1 (antibody, V domains shown)
VH: EVQLVESGPALVKPTQTLTLTCTFSGFSLTGYSVNWIRQPPGKALEWLGMIWGDGSTDYNSALKSRLTISKDTSKNQVVLTMTNMDPVDTATYYCARDYYFNYASWFAYWGQGTLVTVSS
VL: DIQMTQSPSSLSASVGDRVTITCSASQGISNYLNWYQQKPGKAPKLLIYYTSNLHSGVPSRFSGSGSGTDFTLTISSLQPEDFATYYCQQYSELPWTFGQGTKVEIK
notes: IgG. k1 graft / VH2 graft + 49
As to B1, the binding result in assay [3] is listed as “no binding”.

B2: humanized 9B12 variant v8 (antibody, V domains shown)
VH: EVQLVESGGGLVQPGGSLRLSCAASGFSLTGYSVNWVRQAPGKGLEWVGMIWGDGSTDYNSALKSRFTISRDNSKNTLYLQMNSLRAEDTAVYYCARDYYFNYASWFAYWGQGTLVTVSS
VL: B1 VL with A43T, P44V
notes: IgG. k1 graft 43+44 / VH3 graft; Residue change derived
As to B2, the binding result in assay [3] was “no binding”.

B3: humanized 9B12 variant v3 (antibody, V domains shown)
VH: B2 VH
VL: B1 VL
notes: Light chain changes derived
Take B3: the binding result in assay [3] is given as “no binding”.

B4: humanized 9B12 variant v9 (antibody, V domains shown)
VH: B2 VH with A24V
VL: B1 VL with A43T, P44V
notes: IgG. k1 graft 43+44 / VH3 graft + 24; Residue changes derived
As for B4, in assay [4], the 50% inhibitory concentration (IC50) was 34 nM and 44 nM.

B5: humanized 9B12 variant v2 (antibody, V domains shown)
VH: B1 VH with F24V
VL: B1 VL
notes: IgG. k1 graft / VH2 graft + 24 + 49; Residue changes derived against v12
With B5, the IC50 in assay [4] is 28 nM and 37 nM.

B6: humanized 9B12 variant v23 (antibody, V domains shown)
VH: B1 VH with F24V, T73N, N76S
VL: B1 VL with F71Y
notes: IgG. k1 graft + 71 / VH2 graft + 24 + 49 + 73 + 76; Residue changes derived
On to B6, for which the concentration for half-maximal inhibition (IC50) in assay [4] worked out at 54 nM.

B7: humanized 9B12 variant v4 (antibody, V domains shown)
VH: B2 VH with A24V
VL: B1 VL
notes: IgG. k1 graft / VH3 graft + 24
In the case of B7, in assay [4], the IC50 is 98 nM and 70 nM.

B8: humanized 9B12 variant v25 (antibody, V domains shown)
VH: B2 VH with A24V, V48L, F67L, R71K, N76S, L78V
VL: B1 VL with F71Y
notes: IgG. k1 graft + 71 / VH3 graft + 24 + 48 + 67 + 71 + 76 + 78; Residue changes derived
In the case of B8, in assay [4], the IC50 was 56 nM.

B9: humanized 9B12 variant v17 (antibody, V domains shown)
VH: B1 VH with F24V, T73N
VL: B1 VL with A43T, P44V, F71Y
notes: IgG. k1 graft 43+44+71 / VH2 graft + 24 + 49 + 73; Residue change derived
With B9, in assay [4], the half-maximal inhibitory concentration (IC50) came out at 29 nM.

B10: humanized 9B12 variant v24 (antibody, V domains shown)
VH: B1 VH with F24V, I37V, T73N, N76S
VL: B1 VL with F71Y
notes: IgG. k1 graft + 71 / VH2 graft + 24 + 37 + 49 + 73 + 76; Residue changes derived
On to B10, for which the half-inhibitory concentration (IC50) in assay [4] came out at 53 nM.

B11: humanized 9B12 variant v15 (antibody, V domains shown)
VH: B2 VH with R71K, L78V
VL: B1 VL with A43T, P44V, F71Y
notes: IgG. k1 graft 43+44+71 / VH3 graft + 71 + 78; Residue changes derived
With B11, the IC50 in assay [4] was 42 nM and 52 nM.

B12: humanized 9B12 variant v16 (antibody, V domains shown)
VH: B1 VH with F24V, I37V
VL: B1 VL with A43T, P44V, F71Y
notes: IgG. k1 graft 43+44+71 / VH2 graft + 24 + 37 + 49; Residue change derived
On to B12, for which the concentration for half-maximal inhibition (IC50) in assay [4] turned out to be 27 nM.

B13: humanized 9B12 variant v19 (antibody, V domains shown)
VH: B1 VH with F24V, I37V, T73N, N76S
VL: B1 VL with A43T, P44V, F71Y
notes: IgG. k1 graft 43+44+71 / VH2 graft + 24 + 37 + 49 + 73 + 76; Residue changes derived
B13: in assay [4], the IC50 was 28 nM.

B14: humanized 9B12 variant v20 (antibody, V domains shown)
VH: B2 VH with A24V, V48L, F67L, R71K, N76S, L78V
VL: B1 VL with A43T, P44V, F71Y
notes: IgG. k1 graft 43+44+71 / VH3 graft + 24 + 48 + 67 + 71 + 76 + 78; Residue changes derived
As for B14, in assay [4], the IC50 came to 26 nM.

B15: humanized 9B12 variant v7 (antibody, V domains shown)
VH: B1 VH with F24V
VL: B1 VL with A43T, P44V
notes: IgG. k1 graft 43+44 / VH2 graft + 24 + 49; Residue change derived
Take B15: in assay [4], the IC50 was 24 nM and 36 nM.

B16: humanized 9B12 variant v13 (antibody, V domains shown)
VH: B2 VH
VL: B1 VL with A43T, P44V, F71Y
notes: IgG. k1 graft 43+44+71 / VH3 graft
As for B16, the binding result in assay [3] was “no binding”.

B17: humanized 9B12 variant v21 (antibody, V domains shown)
VH: B1 VH with F24V, I37V
VL: B1 VL with F71Y
notes: IgG. k1 graft + 71 / VH2 graft + 24 + 37 + 49; Residue changes derived
For B17, in assay [4], the IC50 was 82 nM.

B18: humanized 9B12 variant v14 (antibody, V domains shown)
VH: B2 VH with A24V
VL: B1 VL with A43T, P44V, F71Y
notes: IgG. k1 graft 43+44+71 / VH3 graft + 24; Residue change derived
Regarding B18, the IC50 in assay [4] was 39 nM and 56 nM.

B19: humanized 9B12 variant v6 (antibody, V domains shown)
VH: B1 VH
VL: B1 VL with A43T, P44V
notes: IgG. k1 graft 43+44 / VH2 graft + 49; Residue changes derived
B19: the binding result in assay [3] is listed as “no binding”.

B20: humanized 9B12 variant v22 (antibody, V domains shown)
VH: B1 VH with F24V, T73N
VL: B1 VL with F71Y
notes: IgG. k1 graft + 71 / VH2 graft + 24 + 49 + 73; Residue changes derived
As for B20, the IC50 in assay [4] is 59 nM.

B21: humanized 9B12 variant v18 (antibody, V domains shown)
VH: B1 VH with F24V, T73N, N76S
VL: B1 VL with A43T, P44V, F71Y
notes: IgG. k1 graft 43+44+71 / VH2 graft + 24 + 49 + 73 + 76; Residue changes derived
B21: the IC50 in assay [4] was determined as 22 nM.

B22: humanized 9B12 variant v10 (antibody, V domains shown)
VH: B2 VH with R71K, L78V
VL: B1 VL with A43T, P44V
notes: IgG. k1 graft 43+44 / VH3 graft + 71 + 78; Residue changes derived
Regarding B22, the IC50 in assay [4] was 61 nM.

B23: humanized 9B12 variant v11 (antibody, V domains shown)
VH: B1 VH
VL: B1 VL with A43T, P44V, F71Y
notes: IgG. k1 graft 43+44+71 / VH2 graft + 49; Residue change derived
On to B23, for which, in assay [3], the binding result is reported as “no binding”.

B24: humanized 9B12 variant v5 (antibody, V domains shown)
VH: B2 VH with R71K, L78V
VL: B1 VL
notes: IgG. k1 graft / VH3 graft + 71 + 78; Residue changes derived
B24: in assay [4], the IC50 was 70 nM.
